Assay results taken from PMC11221535.

Key:
Test in all cases: ITC
[1] = target: TobE N-terminal docking domain (TobE ^NDD) (Methylorubrum extorquens AM1)
[2] = target: TobE ^NDD-ACP didomain (Methylorubrum extorquens AM1)
[3] = target: TobC C-terminal docking domain (TobC ^CDD) (Methylorubrum extorquens AM1)

Substance | Kd [1] [µM] | stoichiometry N [1] | Kd [2] [µM] | Kd [3] [µM] | stoichiometry N [3]
TobC ^CDD R2271A (domain or fragment) | 769 |  |  |  | 
TobC C-terminal docking domain (TobC ^CDD) (domain or fragment) | 4 | 0.8 | 5.7 |  | 
TobE N-terminal docking domain (TobE ^NDD) (domain or fragment) |  |  |  | 3.2 | 1
